Measurements: article PMC10873347

Target: actin (pyrene-labeled filaments)
Test: pyrene-actin fluorescence quenching titration
Settings: sites S3

human cofilin-1 (from UniProt P23528) cofilin S3D,G4F, sequence (P23528 whole entry, looked up, stated change not applied): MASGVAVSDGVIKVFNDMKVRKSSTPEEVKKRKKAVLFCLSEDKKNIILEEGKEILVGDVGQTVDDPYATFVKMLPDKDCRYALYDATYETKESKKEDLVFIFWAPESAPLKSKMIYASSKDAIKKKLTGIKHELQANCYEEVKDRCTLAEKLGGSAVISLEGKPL
human cofilin-1 (from UniProt P23528) cofilin S3D,G4L, sequence (P23528 whole entry, looked up, stated change not applied): as above
human cofilin-1 (from UniProt P23528) cofilin S3D, sequence (P23528 whole entry, looked up, stated change not applied): as above

Substance: human cofilin-1 (from UniProt P23528) cofilin S3D,G4L
- other: K0.5 (reference: cofilin G4L): same; reference 0.59

Substance: human cofilin-1 (from UniProt P23528) cofilin S3D
- other: K0.5 (reference: cofilin WT): weaker; reference 0.61

Substance: human cofilin-1 (from UniProt P23528) cofilin S3D,G4F
- other: K0.5 (reference: cofilin G4F): same; reference 1.0
